Source: US12415833B2, “Method for activating helper T cell” (International Institute of Cancer Immunology, Inc., priority 2010, dated 2025)
No end group written: not given here.

How the values were obtained:
Assay in all cases: Folding test of HLA class II monomer protein with peptide using HPLC
Format in all cases: binding
Settings in all cases: 50-fold molar peptide, 37° C. overnight, compared with control (solvent only), folding criterion not less than 0.1 minute
[1] = target: HLA class II monomer protein DRB1*0101 (Homo sapiens, UniProt P01903+P01911, A100R/D57E/F55L/F60I/F76Y/I96L/L162R/M171V/P40L/Q125E/R42F/V115G/Y59C)
Protocol: (§1) Next, in order to evaluate a binding ability of WT1-332 with MHC class II molecules, a folding test of 7 types of HLA class II monomer proteins (DRB1*1501, 0101, 0405, 0803, 0901, 1502, or DRB4*0101) with WT1-332 was carried out using HPLC. Briefly, a folding reaction solution was prepared by mixing an HLA class II monomer protein, a peptide [a peptide binding to each protein (positive control), a peptide not binding to each protein (negative control), and WT1-332], and a folding buffer. After reacting the solution at 37° C., the retention time was analyzed using HPLC. The folding with WT1-332 was evaluated by utilizing a shift of the retention time due to the binding of an HLA class II monomer protein with a peptide.
(§2) HLA class II monomer proteins which had been freeze-preserved at −80° C. were thawed on ice. The HLA class II monomer proteins thawed were adjusted using a dilution buffer so that they were contained in an amount of 0.05 mg (1×10−^9 mol) in 83 μL.
(§3) About 1 mg of each peptide was weighed by an electronic balance, transferred to a glass vial, and dissolved in DMSO to give a concentration of 20 mg/mL.
(§4) The amount of a peptide which is a 50-fold molar amount relative to an HLA class II monomer protein was calculated using the following calculation formula. Amount of peptide required: 1×10^−9 mol×50=5×10^−8 mol (amount of peptide required) […]×(Molecular weight of peptide)×1,000=(amount of peptide required)(mg) (Amount of peptide required)/[purity of peptide/100]=(amount of peptide added)(mg) [(Amount of peptide added)/20 mg/mL]×1,000=(amount of peptide solution added)(μL) Calculation of Amount of Folding Buffer Added
(§5) As a folding buffer, a 10% amount of a mixed solution of an HLA class II monomer protein and a peptide was added. The amount of the folding buffer added was calculated using the following calculation equation. [83 μL (Amount of HLA class II monomer protein)+(amount of peptide solution in 50-fold molar amount)]×0.1=amount of folding buffer added Analysis of Folding Using HPLC
(§6) To a glass vial charged with an HLA class II monomer protein, a peptide solution and a folding buffer were added in a calculated amount, and the mixture was allowed to stand at 37° C. overnight. HPLC (Waters 2695 Separation Module) was started, and a Seperdex 200 column was equilibrated with an equilibrating buffer. To all samples, 300 μL of the equilibrate buffer was added and well mixed, and a 100 μL portion of the mixture was used as a sample injection volume to calculate the retention time. Analysis time was 50 minutes. The criterion for the folding of an HLA class II monomer protein with a peptide is a shift of the retention time of not less than 0.1 minute as compared with a control (solvent only).

[2] = target: HLA class II monomer protein DRB1*0405 (Homo sapiens, UniProt P01903+P01911, A100R/A169T/D86S/F76Y/I96L/K127E/L162R/M171V/N62H/P40V/Q125Y/R42H/S133A/S149N/S66Y/V115G/V209L/W38E)
Protocol: as §1, §2, §3, §4, §5, §6

[3] = target: HLA class II monomer protein DRB1*0803 (Homo sapiens, UniProt P01903+P01911, A100R/A103L/A169T/D86S/F76Y/H45Y/K41T/L162R/M171V/P40S/Q125H/Q178H/Q39Y/Q99D/R218S/R42G/S66Y/V115G/W38E)
Protocol: as §1, §2, §3, §4, §5, §6

[4] = target: HLA class II monomer protein DRB1*0901 (Homo sapiens, UniProt P01903+P01911, A100R/A103E/D57H/D86V/F55Y/F60I/F76Y/I96F/K127E/L162R/M171V/P40D/Q125H/Q99R/R33Q/R42F/S133A/S66N/T210M/V115G/W38K/Y107V/Y59G/Y89S)
Protocol: as §1, §2, §3, §4, §5, §6

[5] = target: HLA class II monomer protein DRB1*1501 (Homo sapiens, UniProt P01903+P01911)
Protocol: as §1, §2, §3, §4, §5, §6

[6] = target: HLA class II monomer protein DRB1*1502 (Homo sapiens, UniProt P01903+P01911, V115G)
Chain of HLA class II monomer protein DRB1*1502 (P01903 26-254, other chains not shown): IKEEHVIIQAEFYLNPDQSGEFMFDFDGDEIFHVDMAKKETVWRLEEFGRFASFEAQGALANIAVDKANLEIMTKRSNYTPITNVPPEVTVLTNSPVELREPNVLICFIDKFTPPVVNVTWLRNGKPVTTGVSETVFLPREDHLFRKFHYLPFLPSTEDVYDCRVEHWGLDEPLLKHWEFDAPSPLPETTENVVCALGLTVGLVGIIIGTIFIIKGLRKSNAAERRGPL
Protocol: as §1, §2, §3, §4, §5, §6

[7] = target: HLA class II monomer protein DRB4*0101 (Homo sapiens, UniProt P01903+P13762, G164S)
Protocol: as §1, §2, §3, §4, §5, §6

- degree of shift of the retention time [1]: not less than 0.1 minute
- degree of shift of the retention time [2]: not less than 0.1 minute
- degree of shift of the retention time [3]: not less than 0.1 minute
- degree of shift of the retention time [4]: not less than 0.1 minute
- degree of shift of the retention time [5]: not less than 0.1 minute
- degree of shift of the retention time [6]: not less than 0.1 minute
- degree of shift of the retention time [7]: not less than 0.1 minute
Sequence: KRYFKLSHLQMHSRKH [WT1-332]
